The values that follow come from patent US20150218243A1 (SAMSUNG ELECTRONICS, published 2015).

The experiment concerns the target T1, recombinant full length Human Cdk6 (amino acids 1-326) with N-terminal His tag (Abcam ab84717) (human, UniProt Q00534 1-326).
T1 construct: range 1-326; Bought protein, coated on the ELISA plate at 1 ug/ml; also called Cdk6 protein; not shown: N-terminal His tag of the bought protein
Kind of experiment: ELISA, Cdk6 coated on plate, p15 variant at 0-10 uM, anti-GST primary and HRP secondary antibody, absorbance 450 nm. Background: ELISA stands for enzyme-linked immunosorbent assay.

T1 sequence (Q00534 whole entry, the tested form may be a part): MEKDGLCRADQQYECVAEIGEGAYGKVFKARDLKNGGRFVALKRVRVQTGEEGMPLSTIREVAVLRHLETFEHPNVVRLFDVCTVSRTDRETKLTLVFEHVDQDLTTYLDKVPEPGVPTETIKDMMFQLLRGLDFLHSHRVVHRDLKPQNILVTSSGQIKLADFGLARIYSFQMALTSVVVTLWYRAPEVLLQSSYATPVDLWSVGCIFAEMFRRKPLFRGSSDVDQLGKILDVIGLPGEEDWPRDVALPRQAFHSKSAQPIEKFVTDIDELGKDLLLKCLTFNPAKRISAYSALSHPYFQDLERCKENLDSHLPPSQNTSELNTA

B1: human p15 protein variant (SEQ ID NO: 2) (other)
chain: MREENKGMPSGGGSDEGLASAAARGLVEKVRQLLEAGADPNGVNRFGRRAIQVMMMGSARVAELLLKHGAEPNSADPATSTRPVHDAAREGFLDTLVVLHRAGARLDARDAWGRTPVDLAEERGHRDVAGYLRTATGD
notes: Expressed in E. coli from pET21b (NdeI/XhoI) and purified on a HisTrap column and by SEC; also called mt p15; p15INK4b variant
With B1, the binding result was “binds”.
